Source: patent US20130035289A1, “PHARMACEUTICAL COMPOSITION FOR TREATMENT OF THROMBOSIS-RELATED DISEASES COMPRISING A FRAGMENT OF PROLACTIN (PRL)-GROWTH HORMONE (GH)-PLACENTAL LACTOGEN (PL)-FAMILY PROTEIN” (UNIVERSITE DE LIEGE, priority 2010, published 2013)

Columns and labels:
NF-κB = NF-κB activity in ABAE cells; assay type: cell-based, bovine; details: PAI-1 knockdown with si-RNA, 16K PRL 50 nM 1 h
PAI-1 = molecular target: T1, PAI-1 (Homo sapiens, UniProt P05121); experiment: Immunofluorescence staining on HUVEC, co-localization with His-tag PAI-1; assay type: cell-based; details: HUVECs, PAI-1 added to the medium with 16K PRL
T1 construct: gift of Pr; P. Declerck
Experimental: (§1) HUVECs were grown to 70% confluence on gelatin-coated 35-mm dishes. After incubation for 3 h with 14K GH (160 ng/ml) or 16K PRL (160 ng/ml), the cells were washed with PBS at room temperature and incubated for 1 h at room temperature under non-permeabilization conditions with mouse anti uPA (American Diagnostica INC) diluted 1/100, rabbit anti prolactin (Dako) diluted 1/100, or rabbit anti human GH (home made) diluted 1/100. Endothelial cells were washed in PBS and incubated with FITC horse anti mouse (Vector Laboratory) and Texas red goat anti rabbit antibodies (Jackson Laboratory). For PAI-1 staining, the cells were incubated simultaneously with Histag PAI-1 at 800 uM and 16K PRL or 14K GH. […] Cryostat tumor sections (5 μm thick) were fixed in acetone at −20° C. and in 100% methanol at 4° C. and then incubated with the primary antibodies, rat monoclonal anti PECAM-1, and rabbit polyclonal anti-prolactin (DAKO) for 1 hour at room temperature. The slides were washed and incubated with a Cy3 goat anti-rat and an FITC goat anti-rabbit antibody. After 3 washes in PBS for 10 min, the slides were covered with coverslips in mounting medium (Victor Laboratories Inc.) and analyzed by fluorescence microscopy.

B16F10 tumor = experiment: B16F10 subcutaneous tumor model in wild type and PAI-1 deficient mice; assay type: in vivo, mouse
Experimental: Homozygous PAI-1 deficient mice (PAI-1^−/−) and the corresponding WT mice (PAI^+/+) from either sex with a mixed genetic background 87% C57BL/6 and 13% 129 strain were used throughout this study. The animal experiment protocol used was approved by the Institutional Ethics Committee of the University of Liege.
Subconfluent B16-F10 cells were trypsinized, washed, and resuspended in PBS. Cell suspension (10^5 cells in 50 μl PBS) was injected subcutaneously into the right flank of mice experiments were performed on seven mice in each group. 18 to 20 days after tumor cells injection, the mice were killed and their tumors harvested. Tumor growth was assessed by measuring the length and width of each tumor every 1 to 2 days and calculating tumor volume by means of the formula: length×width^2×0.5.
16K-Ad is a defective recombinant E1-E3-deleted adenovirus vector encoding a secreted polypeptide consisting of the first 139 amino acids of PRL. This adenovirus vector was constructed as previously described with the help of the Adeno-X expression system (BD Biosciences, Erembodegem, Belgium). Null-Ad is a control adenovirus carrying an empty expression cassette. A recombinant adenovirus vector bearing WT human PAI-1 (AdCMVPAI-1) and control adenovirus (AddRR5) were generated as previously described.
The 16K hPRL adenovirus and their corresponding control were injected into mouse tail vein 2 days before the subcutaneous injection of tumor cells. A second injection was done 8 days after the first one. The wt PAI-1 adenovirus and their control were injected one day after the 16K hPRL adenovirus injections. 10^9 pfu of adenoviruses were used for each tail vein injection.
as §1

T1 sequence (P05121 24-402): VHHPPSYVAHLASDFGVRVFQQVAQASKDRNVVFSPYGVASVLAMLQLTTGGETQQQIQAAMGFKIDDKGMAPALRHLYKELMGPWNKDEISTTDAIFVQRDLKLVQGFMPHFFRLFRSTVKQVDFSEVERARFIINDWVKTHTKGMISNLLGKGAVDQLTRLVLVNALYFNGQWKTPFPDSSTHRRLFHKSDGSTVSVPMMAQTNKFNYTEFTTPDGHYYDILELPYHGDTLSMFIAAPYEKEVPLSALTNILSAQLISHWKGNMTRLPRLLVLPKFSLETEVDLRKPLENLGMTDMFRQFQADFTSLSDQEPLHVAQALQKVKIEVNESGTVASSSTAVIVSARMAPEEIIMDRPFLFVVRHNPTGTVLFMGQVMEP

B1: 16K hPRL: 16K N-terminal human prolactin fragment, recombinant, produced and purified from E. coli (protein)
chain: LPICPGGAARCQVTLRDLFDRAVVLSHYIHNLSSEMFSEFDKRYTHGRGFITKAINSCHTSSLATPEDKEQAQQMNQKDFLSLIVSILRSWNEPLYHLVTEVRGMQEAPEAILSKAVEIEEQTKRLLEGMELIVSQVHP
16K PRL action on ECs (NF-κB activity) (NF-κB): reduced | co-localization with PAI-1 (PAI-1): co-localization of 16K PRL and PAI-1 was observed | 16K PRL localization (immunostaining) (B16F10 tumor; PAI-1-deficient mice): only in the bloodstream | plasma level of 16K PRL at the end of the experiment (B16F10 tumor; PAI-1 deficient mice): remained detectable | anti-tumoral effect (B16F10 tumor; PAI-1 deficient mice with systemic expression of human PAI-1 (adenoviral vector)): restored | tumor growth (B16F10 tumor; PAI-1 deficient mice, 16K PRL expressed via 16K-Ad): did not show a tumor growth reduction | tumor blood vessels (B16F10 tumor; PAI-1−/− mice): appeared normal | plasma level of 16K PRL at the end of the experiment (B16F10 tumor; mice where human PAI-1 expression was restored): considerably dropped off | 16K PRL localization (immunostaining) (B16F10 tumor; wild-type mice and PAI-1−/− mice injected with PAI-1-Ad): observed in tumor tissues | tumor blood vessels (B16F10 tumor; wild-type mice, versus untreated controls): smaller, collapsed blood vessels
